These results are taken from article PMC8694081 (Molecular Biology of the Cell, 2021).

Residue numbers refer to the chain shown, from its start. Names may count otherwise. Read-outs that look alike come from different tables or passages of the source.

The target in assay [1] is T1, ubiquitin (UniProt P0CG48 1-76). In words: NMR titration.
Assay [2] deals with T1, ubiquitin. Put plainly: NMR HSQC peak broadening and PRE.
For assay [3], the target named is T1, ubiquitin. Put plainly: NMR HSQC peak broadening and PRE. This is another data set of the same source.

B1: HD-PTP V domain (residues 361-711), wild type (domain or fragment)
chain: VPMAAHEASSLYSEEKAKLLREMMAKIEDKNEVLDQFMDSMQLDPETVDNLDAYSHIPPQLMEKCAALSVRPDTVRNLVQSMQVLSGVFTDVEASLKDIRDLLEEDELLEQKFQEAVGQAGAISITSKAELAEVRREWAKYMEVHEKASFTNSELHRAMNLHVGNLRLLSGPLDQVRAALPTPALSPEDKAVLQNLKRILAKVQEMRDQRVSLEQQLRELIQKDDITASLVTTDHSEMKKLFEEQLKKYDQLKVYLEQNLAAQDRVLCALTEANVQYAAVRRVLSDLDQKWNSTLQTLVASYEAYEDLMKKSQEGRDFYADLESKVAALLERTQSTCQAREAARQQLLDRE
Usually Kd stands for the constant that tells how readily two partners part at equilibrium. In turn, B1 had a Kd with ubiquitin [1] of about 31 µM.

B2: HD-PTP V domain Site2∆ (E388A, D389A), single spin label at residue 400 (S400) (domain or fragment)
chain: B1 chain with E28A, D29A, S40C, C65A, C268A, C337A
modifications: MTSL spin label on cysteine 400
Take B2: the binding result in the assay with ubiquitin [2] was “binds”.

B3: HD-PTP V domain Site1∆ (L371A, E374A, E375A) (domain or fragment)
chain: B1 chain with L11A, E14A, E15A
Turning to B3, the Kd with ubiquitin [1] amounted to 900 µM.

B4: HD-PTP V domain Site2∆ (E388A, D389A), single spin label at residue 368 (domain or fragment)
chain: B1 chain with A8C, E28A, D29A, C65A, C268A, C337A
modifications: MTSL spin label on cysteine 368
For B4, the binding result with ubiquitin [2] is recorded as “binds”.

B5: HD-PTP V domain, no-Cys, S400C, MTSL-labelled (domain or fragment)
chain: B1 chain with S40C, C65A, C268A, C337A
modifications: MTSL spin label on cysteine 400
Turning to B5, the binding result with ubiquitin [3] is reported as “binds”.

B6: HD-PTP V domain, no-Cys, single cysteine at 368 (A368C), MTSL-labelled (domain or fragment)
chain: B1 chain with A8C, C65A, C268A, C337A
modifications: MTSL spin label on cysteine 368
For the molecule B6, the binding result with ubiquitin [3] is listed as “binds”.

B7: HD-PTP V domain lacking cysteine residues (C425A, C628A, C697A) (domain or fragment)
chain: B1 chain with C65A, C268A, C337A
Consider B7, for which the binding result with ubiquitin [3] was “binds”.
